One block for each molecule: values may come before it.
Key:
[1] = target: truncated transmembrane tissue factor comprising residues 1-243, relipidated (human) (UniProt P13726); assay: cell-based or functional assay
[2] = target: T1, soluble tissue factor composed of the extracellular domain residues 1-219 of hTF (human, UniProt P13726 33-251); assay: SPR (BIAcore 2000), antibody immobilized, sTF in solution, 1:1 model
T1 construct: Expressed in E. coli; also called sTF
Method: The binding affinity of sTF for immobilized antibody was determined by surface plasmon resonance (SPR) measurements on a Pharmacia BIAcore 2000 instrument (Pharmacia Biosensor). Each antibody was coupled to the sensor chip surface at a level of 2000-3000 resonance units using amine coupling chemistry (Pharmacia Biosensor). In a typical experiment, 4 different antibodies were immobilized on each of the 4 flow cells of the sensor chip so that sensorgrams could be recorded simultaneously for all 4 antibodies. […] The kinetic constants were determined by non-linear regression analysis according to a 1:1 binding model using software supplied by the manufacturer. Dissociation constants were calculated from the kinetic constants. […] These solutions were incubated at ambient temperature for 30 minutes prior to injection onto the sensor chip. […] Affinities were determined by SPR measurements as described above for the wild-type protein.

[3] = target: tissue factor on human J82 cells (human, UniProt P13726 33-295); assay: cell-based or functional assay
[4] = target: relipidated human tissue factor (Innovin) (human, UniProt P13726 33-295); assay: cell-based or functional assay

Chain of truncated transmembrane tissue factor comprising residues 1-243, relipidated (human) (P13726 33-275): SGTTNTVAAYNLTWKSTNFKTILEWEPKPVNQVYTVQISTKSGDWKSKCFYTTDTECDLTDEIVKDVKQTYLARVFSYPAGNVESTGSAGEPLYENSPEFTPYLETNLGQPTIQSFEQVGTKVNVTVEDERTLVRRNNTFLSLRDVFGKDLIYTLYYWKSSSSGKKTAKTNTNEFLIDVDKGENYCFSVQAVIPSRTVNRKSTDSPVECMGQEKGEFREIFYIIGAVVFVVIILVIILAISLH

concentration that inhibited the initial rate of FX activation in human plasma by 50% [1]: 150 µg/mL
Molecule: HTF1 antibody

Kd [2]: 1.7 nM
koff [2]: 0.0005 s⁻¹
kon [2]: 300000 M⁻¹ s⁻¹
IC50 of FPA generation, human ex-vivo blood flow system [3]: 50 µg/mL
antibody concentration that prolonged the clotting time by 1.5-fold (PT assay) [4]: 27 µg/mL
B1: murine anti-TF antibody 5G6 (antibody, V domains shown)
VH: EVLLQQSGPELVKPGASVKIPCKASGYTFTEYNMDWVKQSHGKSLEWIGDINPNNGNTIYNQKFKGKATLTVDKSSTTAYLELRSLTSEDTAVYFCARDHDYYFDFWGQGTTLTVSS
VL: DIQMTQTPASQSASLGESVTITCLASQTIDTWLAWYQQKPGKSPQLLIYAATSLADGVPSRFSGSGSGTKFSFKISSLQAEDFVSYYCQQPYSSPYTFGGGTKLELKR
notes: Murine monoclonal antibody purified from ascites
